The values below come from the DeepSol protein solubility set.

This data set can be described thus: soluble on expression in E. coli; label from the status in PepcDB or PDB records.
Consider “MSLRPEFQGLQGGLFSSVKKADVGTAVLDLMANGVDMLCWADPFFPDPVLPEHISQAVIKSMENGSASHYTMPIGNPELKEKIALKLQRYNNLTVEAQRNILITPGSDSGLLFAMMPFINNDDEVLIHSPSYPSNFLNVELLGGKPISVELKAENNFQIDIKDFENKITEKTKMVILTNPNNPTGTVLRRESLQAIADFIIAHDLILVVDQAFEDAIFDEIEFISIASLPGMWERTVSVFSFSKGMGLSGFRVGYLVADAQIVDVLFGCTVNVVGATNTSSQAGMIAALDEPSFMGEYTQIFERRRKVVFEMMNAIPGVCMVMPESGFLSWIDISKLGTSTFICDYLLQHAHVMVNSGVPYGQGGEGYIRLVHGCYKDDEKLYAVLTRIQQALMQLAKEKGICHGEGHHHHHH”, for which the “soluble on expression in E. coli” value is on record as “soluble”. Consider “MSLDRILTFDCYGTLIDTKPVFDAISNIAKNNILNSKDAVNIYVNYEDRLMYGETYIPYDKLIKQVLEYCDMELVTNVFSKSYDEIISVHKRLKPFKEVVESLEKIHKKGYELALMSNSVHDIIDYNLDALGNVFNNVFLSEDIHAYKPQLKFFKYVEERLELKQKKHCHIAKGYWWDIVPCSKLGWRKIWVNRENKKGNKCHEPYEEVHTLDEVINLIEGHHHHHH”, for which the “soluble on expression in E. coli” value is listed as “soluble”. For the sequence “ITRDEVGELARVMNEMASQIERNLARISAEKNRLDTILRGMGEGLMVSDAGGTVTLVNPAFLELFGLTQSVEGRQIIEIARFPELHETFRAVVSSRSEHVEEMTLPLGDEKQVLTHWVPLMEE”, the “soluble on expression in E. coli” value is listed as “not soluble”.

For “RADLQYLLNHPDPTEYKEKPLPYPFLTHWLHDIQEQTISKRLDESAGSAGEVSFIFVPCYLNRKDGIFGLGYYDLLIGMDLTVFPSYYEPWGYTPLES”, the “soluble on expression in E. coli” value was “not soluble”. As for “MSLELVSLLMQDCQSTGDIQSKLKRLFAGTIEQMLEAEMEDHLGYEKNSIEGNNSGNSRNGYNRKTIISDYGASEIAVPRDRNGEFEPKILEKRQTRTDEIEQKILSMYSKGMSQRDIEDTLREIYGAEIPQTLISKITDKILPEVNEWQNRPLESVYPIIYFDGIVFKSRKDSQIINKCVYSVLGIDMNGHKDILGIWLSENESASFYASICSDLKKRGIQDIFIACHDNLKGLGEAINAVFPKTKQQLCIVHQIRNSTKFVQYKDRKAICADLKKIYGAVNLDDAEYAKEEFREKWDKKYPSILRSWDANWAELTTFFNYPEQIRHLIYTTNAVEAYHRMVRKFTKTKSIFPTDDSIRKVVFLSSREITKKWTQPSRGWPMAYSQIMIFFADRFIAEGHHHHHH”, the “soluble on expression in E. coli” value is given as “soluble”. Turning to “EDNSRYTHFLTQHYDAKPQGRDDRYCESIMRRRGLTSPCKDINTFIHGNKRSIKAICSQKNVACKNGQTNCYISKSSFQVTTCKLHGGSPWPPCQYRATAGFRNVVVACENGLPVHLDQSIFR”, the “soluble on expression in E. coli” value was “soluble”. “MGSDKIHHHHHHAQNFSDYFEDKTLRADYIFTGDAKKQEVYLDELSSLPQWAGRKHHLAELPLAGNGEITMKDKATGETIYRTSFSSLFQEWVSEEEASRIKRGFENSFLLPYPKKEAVVTISLKDVYHKVNASLTHEIIPNDILIHQRGTNHITPHRYLLQNGNAADCIDVAIMAEGYTEKEMDIFYKDAQTACDALFSHEPFKKLKDKFNIVAVASPSEDSGVSIPGQGKWKSTAVSSHFNTFYSDRYLTTSRVKSIHNWLAGIPYEHIIILANTDTYGGGGIYNSYTLTTAHHPDFQPVVVHEFGHSFGGLADEYAYTETPSPQYPYEVEPWEPNITTLIDFDSKWKDMIPEGTAIPTPVATENADLYTKVGVYEGAGYTQKGLYRPTTECRMKINEAPAFCPVCQRALERLINFYTAK”: the “soluble on expression in E. coli” value was “not soluble”. Then “MTAKPTVFVVDDDMSVREGLRNLLRSAGFEVETFDCASTFLEHRRPEQHGCLVLDMRMPGMSGIELQEQLTAISDGIPIVFITAHGDIPMTVRAMKAGAIEFLPKPFEEQALLDAIEQGLQLNAERRQARETQDQLEQLFSSLTGREQQVLQLTIRGLMNKQIAGELGIAEVTVKVHRHNIMQKLNVRSLANLVHLVEKYESFERGVS”, with “soluble”; and “MTAHPPRPELQIDIVSDVVCPWCIVGFRQLDQALAATGVLARLRWHPFELNPQMGPEGQNLREHIMEKYGSTPEQSAEARARLTAIGAELGFTFNFTDDSRIVNTFAAHQLLDWAEGQGRQHPLKQALFAAYFTDGRDVSDLSVLLDAVEAAGLDREAAQTALTSGAHQAPVREKQKFWAQHGISGVPSMVFGGKYLLTGAQGADTYAQVIQRCLAEAA”, with “not soluble”. Turning to “NDIYNNAITPYLNKETGYQEMFQRVNTRIREFMINELKNHHNEDNVFMLAKNSGIEIAKIEEAPNAVLIPAFVLGELEVAFK”, the “soluble on expression in E. coli” value is “not soluble”. Then “MIGRVFRIFREKGGILKALGLWEWYENLPHKYQKKVKHYYSLKTIKSINFPYKAKHFDTGEVENVLYTKRTFLGTIAQTALLEGDLEFAEWLYNEALKMEGSPYEAHLILNDLVLLAQKQRDLEKVKKYVLQDVELYPEYKEELKSRWGGTLPQIMAFEIYVYLLEREGKIKEALELVEWIKKEGITYPYYDQVKERLLQKLK”, with “not soluble”; and “MGSDKIHHHHHHMMNKPAPRELEVIRSTYITPHMLRITLGGAGLAGFPADQESAYIKLLFPQAGERPLMRTYTIRQQRDDEIDVDFVLHDTDGPASSWAKTAQVGELIQIGGPGLKKLINFEADWFLLAGDMTALPAISVNLAKLPNNAVGYAVIEVLSEADIQPLVHPEHVELHWVINPEADPEGRPLVERIAQLPWLAGEPAVWIACEFNSMRALRRHFKQAHALPKSHFYTSSYWKIGCNEGEHKLVKQEDEQLENGASV”, with “not soluble”. The result for “MKHNLNAHEARVIGCLLEKQVTTPEQYPMSLNGLTLACNQKTSRDPVMELSESQVQQTLDFLLKKHLIRSQSGNRVMKYEHRFCNSEFGDLKFSPAEVAVITLLLLRGAQTPGELRTRTNRMYEFADVAETEETLKTLSLREDGPFVVRLAREPGKRESRFMPLFSGDVASSLLAAGEAEENNHTLEANPRETHSFENIALEKTALEARVAQLEQQVIQLSRRLDDVLIQLDDMKKLRVGIVGLGGIAQKAYLPILTQAQGWQLVGAFSPNQAKAQPLCDSYRMRYFSRLDTLAAASDAVFVHSSTASHFQVVHDLLQAGVHVYVDKPLAETREQSEQLIELADKQHLALMVGFNRRFAPLYQQLKQQASSPVSLRMEKHRLSSIGPHDLGFTLLDDYLHVVDTALWLGGEGARLTGGAVQTNAQGQMLYAEHHFQQGGCLITTSMHRQAGTQRESVQVISDGACYHITDMRQWQQASAGQVISQPAPGWQTTLEQRGFTGAVHHFIEAVSNQTRPQVSGEDAIVAQRMIERILQQ” reads “not soluble”; that for “MSHLDNGFRSLTLQRFPATDDVNPLQAWEAADEYLLQQLDDTEIRGPVLILNDAFGALSCALAEHKPYSIGDSYISELATRENLRLNGIDESSVKFLDSTADYPQQPGVVLIKVPKTLALLEQQLRALRKVVTPDTRIIAGAKARDIHTSTLELFEKVLGPTTTTLAWKKARLINCTFNEPPLADAPQTVSWKLEGTDWTIHNHANVFSRTGLDIGARFFMQHLPENLEGEIVDLGCGNGVIGLTLLDKNPQAKVVFVDESPMAVASSRLNVETNMPEALDRCEFMINNALSGVEPFRFNAVLCNPPFHQQHALTDNVAWEMFHHARRCLKINGELYIVANRHLDYFHKLKKIFGNCTTIATNNKFVVLKAVKLGRRR”, “soluble”. For the sequence “MVCIAAKCGNECSQCKHCHYALEQMSALAQGEKTSGLCPKLETCVFNCLTEDVSKVLSCVATRCNVHCYDGDCPSCKMISRRIFSNICKQHSMTTQPQIKYEGTCPNLFMELADDYVAMKKKKL”, the “soluble on expression in E. coli” value was “not soluble”. Then “MGSDKIHHHHHHMTASTVRSPIKVQMRQTGYAARQQRAARMGGMLYQLHELTRNLLAPWVHQAQANAKMFSDPDSLWASLPGAERMAASNELFHRLGKEYEKPAWALDDVEVDGHSLPIIEREVLSKPFCRLLRFKRFSDHVELIGTMKQQPAVLVVAPLSGHHATLLRDTVRTLLRNHKVYVTDWVDARMVPLEAGAFRLEDYIAYIQEFIRHIGAERLHVVSVCQPTVPVLAAVSLMASNDEPTPRSLVMMGGPIDARRSPTQVNNLATENGIEWFQNNLIHTVPFPYPGHGRQVYPGFLQHAGFLSMNPNRHVMSHWDFYTDLVKGDLQDAQAHRQFYDEYNAVLDMPSEYYLDTIRVVFQEFLLPQGKWKVDGQLVMPSAIRNTALLSIEGELDDIAGLGQTEAVHDLCTGIDAAHRRHLVVEGAGHYGIFSGRRWREVVYPQVREFIARYDADPVGSRDPATVTPIRKRGKRA”, with “not soluble”; and “MGSDKIHHHHHHMRDRTVEIMWQAIDALDFSRIKAKLSHQKQVQWTPESLESAEAGYRQFLKMAAKYPGVPAVPSEQVDAFWHAHILDTRRYASDCVNIFGHVLHHDPYVGIDGPEDEARLFEMAAQSDVLSMREFGSPLTSASYFAQAAADEPAYCAREATAAEPAYCARMAKGPSYCARMGKALEPAYCAREATANEVVKRDHAAGGQAAYCALTLSQPASC”, with “not soluble”. With “MELARPRSNFQSDLDFCPDCGSVLPLPGIQDTVICSRCGFSIDVRDCEGKVVKTSVVFNKLGATIPLSVDEGPELQGPVIDRRCPRCGHEGMAYHTRQMRSADEGQTVFYTCINCKFQEKEDS”, the “soluble on expression in E. coli” value is recorded as “soluble”. Then “MSPSESGELSIIQELSQRIVEAQRQIRILDSIKWDESVKQEFFKFKGKKLPSIDKAYYDGKPLPFKVKDKQEEFRIILRDAQNQLGQYSTVTRLIRRQCEEYSRAAQMLSLRGTPSFSEMAMELYGSPDDVFYVGGPRMCEMGSLLFDVLKSLQVQLQSQADIKRYTPIQAQEILQERLGKFFDKHPGRVSVMVSDDMIADASAGADSIKLSQNAMFSDRDLRYLEVHEGWVHVGTTLNGALQPNCFFLSKGSPSSSVIQEGLAVITEVVTFSSYPGRMLKITNRVIALDKVTQGADFIDIYRYFLECGLSEEDSYNQSVRIFRGSTPTGGPFTKDLSYAKGFVLIYNYIRFAIGQKRVDTIPLLFTGKLVLDDLPLLGELKEREILTDPVYLPPPFQDLAALSAWMSFSLYLNQFDLNEIQKNFRFLLVLEHHHHHH”, with “not soluble”.

As to “MGSDKIHHHHHHACDDDEATDPYDINYVYIYKPSETNATLEYKGDGTFLKEIATEHILSPVRCTKPAPQDLTIQLAIDRSLVDAYNSEYGTSYVALQNAELENATLYIKQGEYISVDTLKVHYTNMEEFKNGSENYILPIAITSINGTGVSASESNSKIFLTFESTYKPNHVTLTSSKEYLLEYQYSQGFTNLSSEWKLDGILKSAWAADGDTKVTLAINPALVGTYNALHGTDYSLLTSASLKQSTIMIKQGKTTPEESVALSFSDDMASVQLGTNYVIPVTITNVDGVGADIGENKVIYIVYKTALVGFLSCVDKPVGSVINDHSGWSFTLNGQSSDLYDYVPDGSILDIDLGKQENIKTIALHFYEWFYSSESASIAISNDGEKYEDLGVASGFANKTSYILLLVAKQAQYIRVTFHGALYYSPYINTVGIYTETE”, the “soluble on expression in E. coli” value is on record as “not soluble”. Then “MRTQTFPPSSSSSRTTHPKKNRHSSNSSSMALVTPAKSSTGAAPKQSSQSGWDYWTRVYSDDAQTTGTPRDVRISDMLSSESLIRAKLLFLNVPSLPSAHKNIILNLVKRELNHDISIQDVVVVPPAKWFLNFYRPEDALKVMKHLNGYSYRGHILAVRFCYPDGTYGDESALTELVQCTNSAKGRILEKKDIVQDTFAVECWTKTEFDSLKVFEKELTNLLKAHAYLPYHTVLQSMRNLFTCKVQSELSSMFISDALAQWPTGLIRIFNRNVKVVSNTMCLSSSSYYTQRIHDSALEGGCSVHRNSWEPTVPDDIRSEVQLIQYTNSFLGHFGPQNIDVDIPIRILAQSLRGTWPKTGPKLAALLTEISSGFVLINRVLYLSSNLHHHEKIIDNLACFQDDCTDVYFLPLSCTTEDQKGKTVDYEDI”, with “not soluble”.
